Source: US20240228612A1 (SICHUAN KELUN BIOTECH BIOPHARMACEUTICAL, published 2024)
Residue numbers refer to the chain shown, from its start. Each block holds one binder with its values, some of them ahead of it.

Tests used:
human Nectin-4 protein [1] = molecular target: T1, human Nectin-4 protein (human, UniProt Q96NY8 32-349); experiment: ELISA, coated antigen
T1 construct: Purified protein used for coating in ELISA and as analyte in Octet; also called human Nectin-4 antigen
T1 sequence (looked up): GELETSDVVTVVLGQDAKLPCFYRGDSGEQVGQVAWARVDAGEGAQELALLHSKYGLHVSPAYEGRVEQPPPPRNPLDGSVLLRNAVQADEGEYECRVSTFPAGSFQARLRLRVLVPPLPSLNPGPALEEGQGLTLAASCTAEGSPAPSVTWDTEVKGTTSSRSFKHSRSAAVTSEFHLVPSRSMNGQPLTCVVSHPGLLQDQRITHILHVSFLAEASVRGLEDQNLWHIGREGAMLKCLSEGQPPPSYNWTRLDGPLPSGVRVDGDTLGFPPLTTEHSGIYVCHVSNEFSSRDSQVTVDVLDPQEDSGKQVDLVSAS
Description: (§1) The affinity of anti-human Nectin-4 humanized monoclonal antibodies to Nectin-4 protein of different species was detected by ELISA.

[2] = molecular target: T2, cynomolgus monkey Nectin-4 protein (cynomolgus monkey); experiment: ELISA, coated antigen
T2 construct: also called cynomolgus monkey Nectin-4 antigen
Description: as §1

[3] = molecular target: T3, two IgC domains of human Nectin-4 overexpressed on A549 cells (human, UniProt Q96NY8 148-349, limits assumed); experiment: flow cytometry on A549-Nectin-4-IgCC cells
T3 construct: domain: two IgC domains; also called A549-Nectin-4-IgCC
T3 sequence (looked up): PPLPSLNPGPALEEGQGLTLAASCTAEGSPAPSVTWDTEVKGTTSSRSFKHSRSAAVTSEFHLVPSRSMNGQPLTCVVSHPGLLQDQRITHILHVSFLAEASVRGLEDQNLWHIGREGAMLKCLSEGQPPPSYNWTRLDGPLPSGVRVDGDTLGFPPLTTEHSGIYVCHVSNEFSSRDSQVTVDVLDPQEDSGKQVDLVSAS
Description: Human Nectin-4 contains one IgV domain and two IgC domains. To determine the binding domain of the anti-human Nectin-4 humanized monoclonal antibodies, an A549 stable cell line A549-Nectin-4-IgV overexpressing Nectin-4 IgV domain, and an A549 stable cell line A549-Nectin-4-IgCC overexpressing two IgC domains of Nectin-4 were constructed, and the binding domains of the antibody to be tested were detected by flow cytometry. The specific steps were as follows: A549-Nectin-4-IgV and A549-Nectin-4-IgCC cells were digested, resuspended by centrifugation, washed twice with PBS; the cells were resuspended with PBS (containing 1% BSA), and spread at 300,000 cells/well into a 96-well tip-bottom plate, 50 μl per well; 50 μL of the antibody to be tested at a final concentration of 40 μg/mL was added to each well, and Human IgG was used as a negative control; after being mixed well, the resulting mixture was reacted in the dark at 4° C. for 1 hour; washing was performed 3 times with PBS, FITC-labeled anti-human Fc secondary antibody (brand: BioLegend, product number: 409322) was added, incubated at 4° C. for 0.5 hours in the dark; washing was performed 3 times with PBS, and detection was carried out using a flow cytometer (flow cytometer brand: Beckman, model: Cytoflex).

human Nectin-4 protein [4] = molecular target: T1, human Nectin-4 protein; experiment: competitive ELISA, coated Nectin-4; competitor biotin-labeled Nectin-1-hFc
Method: Human Nectin-4 is linked to another Nectin-4 molecule or Nectin-1 molecule through the IgV domain. Because 31HZ, 56HZ and 74HZ all bind to the IgV domain of Nectin-4, the competitive activity of the three antibodies was detected by competitive ELISA. The specific steps were as follows: Nectin-4 protein was diluted to 2 μg/mL with CBS coating solution, 100 μL per well, and incubated at 37° C. for 2 hours; washing was performed once with 300 μL PBST, PBS (2% BSA) was then added, 100 μL per well, and incubation was performed at 37° C. for 2 hours; biotin-labeled Nectin-1-hFc was diluted with PBS (2% BSA) to 20 μg/mL; the antibody to be detected was diluted with PBS (2% BSA), wherein the dilution of 31HZ and 74HZ was started from 3.73 μg/mL, 3-fold dilution, and 9 concentration points, the dilution of 56HZ was started from 1.25 μg/mL, 2-fold dilution, and 10 concentration points; the above two diluted solutions were mixed well in equal volumes, and then added to the corresponding well at 100 μL/well, and incubation was performed at room temperature for 2 hours; washing was performed three times with 300 μL PBST; HRP-streptavidin was diluted with PBS (2% BSA) at a ratio of […], and added to the corresponding well at 100 μL/well, incubation was performed at room temperature for 1 hour; washing was performed five times with 300 μL of PBST; 100 μL of TMB was added to the corresponding well, color development was performed at room temperature for 10 minutes, and then terminated by adding 50 μL of 2N H₂SO₄, and a microplate reader was used for collecting readings at 450 nm.

human Nectin-4 protein [5] = molecular target: T1, human Nectin-4 protein; experiment: BLI (Octet Fortebio), antibody on ProA sensor, Nectin-4 as analyte, 1:1 global fit
Method: (§2) The dynamic affinity of anti-human Nectin-4 humanized monoclonal antibodies was detected using Octet Fortebio®. The main steps comprised: firstly, the anti-human Nectin-4 humanized monoclonal antibody (concentration of 5 μg/mL) was immobilized on ProA sensor, then subjected to binding reaction with human or cynomolgus monkey Nectin-4 (gradiently diluted to 400 nM, 200 nM, 100 nM, 50 nM, 25 nM, 12.5 nM, 6.25 nM, 0 nM), and the anchored product in the solid phase obtained through fully reaction was subjected to dissociation reaction in PBST buffer. After the completion of the experiment, the results were analyzed by using Data Analysis 11.0 software at 1:1 mode to perform global fitting, thereby obtaining the affinity constant of antibody to antigen.

[6] = molecular target: T2, cynomolgus monkey Nectin-4 protein; experiment: as above
Method: as §2

EC50 (human Nectin-4 protein [1]): 9.48 ng/mL | EC50 [2]: 9.85 ng/mL | binding result [3]: no binding | IC50 (human Nectin-4 protein [4]): 0.0269 µg/mL | Kd (human Nectin-4 protein [5]): 19.6 nM | Kd [6]: 18.4 nM
B1: anti-human Nectin-4 humanized monoclonal antibody 56HZ (antibody, human IgG1, kappa, V domains shown)
VH: QVQLQESGPGLVKPSQTLSLTCTVSGYFNSITSDYDWHWIRHHPGKGLEWMGYISFSGRTYYNPSLKSRVTISHDTSKNQFSLKLSSVTAADTAVYYCARGNYDGFDYWGQGTLVTVSS
VL: DIVLTQSPATLSLSPGERATLSCRASQNIGTSIHWYQHKPGQSPRLLIKFASESISGIPARFSGSGSGTDFTLTISSLEPEDFAVYYCQQSKSWPTYTFGGGTKVEIKR
notes: Human IgG1 heavy chain constant region, human kappa light chain constant region; expressed in CHO-E cells

EC50 (human Nectin-4 protein [1]): 8.34 ng/mL | EC50 [2]: 6.73 ng/mL | binding result [3]: no binding | IC50 (human Nectin-4 protein [4]): 0.0272 µg/mL | Kd (human Nectin-4 protein [5]): 12.1 nM | Kd [6]: 9.54 nM
B2: anti-human Nectin-4 humanized monoclonal antibody 74HZ (antibody, human IgG1, kappa, V domains shown)
VH: QVQLVQSGAEVKKPGSSVKVSCKASGYTFINYWMNWVRQAPGQGLEWIGMIHPSDSATRLNQSFQGRVTLTVDKSTSTAYMELSSLRSEDTAVYYCARWGNFYTVNAWYYFDYWGQGTLVTVSS
VL: DIVITQSPDSLAVSLGERATINCKSSQTLLNSNTQKNYLAWYQQKPGQSPKLLFYFASTRESGVPDRFSGSGSGTDFTLTISSLQAEDVAVYFCQQHYSTPLTFGQGTKLEIKR
notes: as for B1

EC50 (human Nectin-4 protein [1]): 3.6 ng/mL | EC50 [2]: 4.45 ng/mL | binding result [3]: no binding | IC50 (human Nectin-4 protein [4]): 0.0276 µg/mL | Kd (human Nectin-4 protein [5]): 22.5 nM | Kd [6]: 14.5 nM
B3: anti-human Nectin-4 humanized monoclonal antibody 31HZ (antibody, human IgG1, kappa, V domains shown)
VH: QVQLVQSGAEVKKPGSSVKVSCKASGYTFTDYWMNWVRLAPGQGLEWIGMIHPSDSETRLNQKFQGRVTLTVDKSTSTAYMELSSLRSEDTAVYYCARWDFRIYYAMDYWGQGTLVTVSS
VL: B2 VL with I2V, T28S, S32T, T34S, F54V, Q106G, L110V
notes: as for B1
